The record followed here is patent US20100081200A1, “FORMULATIONS AND METHODS FOR CULTURING STEM CELLS” (priority 2007, published 2010).

One test relates to embryonic stem cells. The test can be described thus: Effect of lithium chloride on embryonic stem cells. It is filed as cell-based. The source says: Thus, in some specific embodiments, the serum replacement is devoid lithium chloride.
The subject of test [1] is embryonic stem cell colonies. The test can be described thus: Effect of fetuin and α-fetoprotein on growth rate and size of embryonic stem cell colonies. It is filed as cell-based. As to conditions: human serum albumin 10 mg/ml. The procedure: All formulations shown contained human serum albumin at a concentration of 10 mg/ml.
The composition of the formulation according to this embodiment of the present invention was further optimized as described above in Table 2.

For the molecule `[Cl-].[Li+]` [lithium chloride], the “effect on embryonic stem cells” value in the test on embryonic stem cells is on record as “may be harmful for embryonic stem cells resulting in differentiation”.

B1: A: α-fetoprotein, commercially available fetal carrier protein (protein, UniProt P02771 19-609, looked up)
Alpha-fetoprotein: RTLHRNEYGIASILDSYQCTAEISLADLATIFFAQFVQEATYKEVSKMVKDALTAIEKPTGDEQSSGCLENQLPAFLEELCHEKEILEKYGHSDCCSQSEEGRHNCFLAHKKPTPASIPLFQVPEPVTSCEAYEEDRETFMNKFIYEIARRHPFLYAPTILLWAARYDKIIPSCCKAENAVECFQTKAATVTKELRESSLLNQHACAVMKNFGTRTFQAITVTKLSQKFTKVNFTEIQKLVLDVAHVHEHCCRGDVLDCLQDGEKIMSYICSQQDTLSNKITECCKLTTLERGQCIIHAENDEKPEGLSPNLNRFLGDRDFNQFSSGEKNIFLASFVHEYSRRHPQLAVSVILRVAKGYQELLEKCFQTENPLECQDKGEEELQKYIQESQALAKRSCGLFQKLGEYYLQNAFLVAYTKKAPQLTSSELMAITRKMAATAATCCQLSEDKLLACGEGAADIIIGHLCIRHEMTPVNPGVGQCCTSSYANRRPCFSSLVVDETYVPPAFSDDKFIFHKDLCQAQGVALQTMKQEFLINLVKQKPQITEEQLEAVIADFSGLLEKCCQGQEQEVCFAEEGQKLISKTRAALGV
Regarding B1, the “concentration that increased colony size and growth rate the most” value in test [1] was 0.05 mg/mL.

B2: F: Fetuin, commercially available fetal carrier protein (protein, UniProt P12763 19-359, looked up)
Alpha-2-HS-glycoprotein: IPLDPVAGYKEPACDDPDTEQAALAAVDYINKHLPRGYKHTLNQIDSVKVWPRRPTGEVYDIEIDTLETTCHVLDPTPLANCSVRQQTQHAVEGDCDIHVLKQDGQFSVLFTKCDSSPDSAEDVRKLCPDCPLLAPLNDSRVVHAVEVALATFNAESNGSYLQLVEISRAQFVPLPVSVSVEFAVAATDCIAKEVVDPTKCNLLAEKQYGFCKGSVIQKALGGEDVRVTCTLFQTQPVIPQPQPDGAEAEAPSAVPDAAGPTPSAAGPPVASVVVGPSVVAVPLPLHRAHYDLRHTFSGVASVESSSGEAFHVGKTPIVGQPSIPGGPVRLCPGRIRYFKI
B2: the “concentration that increased colony size and growth rate the most” value in test [1] was 0.1 mg/mL.
